Experimental data taken from IntAct's records for PubMed 31515488.

B1: Ligand of Numb protein X 2 (Homo sapiens), Q8N448 (parent)
chain: MGTTSDEMVSVEQTSSSSLNPLCFECGQQHWTRENHLYNYQNEVDDDLVCHICLQPLLQPLDTPCGHTFCYKCLRNFLQEKDFCPLDRKRLHFKLCKKSSILVHKLLDKLLVLCPFSSVCKDVMQRCDLEAHLKNRCPGASHRRVALERRKTSRTQAEIENENGPTLLDPAGTLSPEADCLGTGAVPVERHLTSASLSTWSEEPGLDNPAFEESAGADTTQQPLSLPEGEITTIEIHRSNPYIQLGISIVGGNETPLINIVIQEVYRDGVIARDGRLLAGDQILQVNNYNISNVSHNYARAVLSQPCNTLHLTVLRERRFGNRAHNHSDSNSPREEIFQVALHKRDSGEQLGIKLVRRTDEPGVFILDLLEGGLAAQDGRLSSNDRVLAINGHDLKYGTPELAAQIIQASGERVNLTIARPGKPQPGNTIREAGNHSSSSQHHTPPPYYSRPSSHKDLTQCVTCQEKHITVKKEPHESLGMTVAGGRGSKSGELPIFVTSVPPHGCLARDGRIKRGDVLLNINGIDLTNLSHSEAVAMLKASAASPAVALKALEVQIVEEATQNAEEQPSTFSENEYDASWSPSWVMWLGLPSTLHSCHDIVLRRSYLGSWGFSIVGGYEENHTNQPFFIKTIVLGTPAYYDGRLKCGDMIVAVNGLSTVGMSHSALVPMLKEQRNKVTLTVICWPGSLV
partner: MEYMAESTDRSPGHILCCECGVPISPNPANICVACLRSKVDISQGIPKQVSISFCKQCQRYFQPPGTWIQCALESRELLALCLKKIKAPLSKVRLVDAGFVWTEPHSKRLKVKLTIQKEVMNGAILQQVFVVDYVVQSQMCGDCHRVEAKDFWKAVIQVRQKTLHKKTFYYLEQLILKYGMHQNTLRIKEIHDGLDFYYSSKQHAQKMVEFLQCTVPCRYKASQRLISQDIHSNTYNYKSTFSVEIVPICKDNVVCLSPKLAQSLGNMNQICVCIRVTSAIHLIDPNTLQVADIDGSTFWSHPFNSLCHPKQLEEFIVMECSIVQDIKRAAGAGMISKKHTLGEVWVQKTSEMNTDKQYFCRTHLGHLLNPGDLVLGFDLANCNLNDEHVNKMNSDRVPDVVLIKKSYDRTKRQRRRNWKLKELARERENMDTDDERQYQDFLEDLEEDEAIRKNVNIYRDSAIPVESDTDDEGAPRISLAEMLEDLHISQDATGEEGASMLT
B2: UPF0688 protein C1orf174 (Homo sapiens), Q8IYL3 (parent)
chain: MRSRKLTGAVRSSARLKARSCSAARLASAQEVAGSTSAKTACLTSSSHKATDTRTSKKFKCDKGHLVKSELQKLVPKNDSASLPKVTPETPCENEFAEGSALLPGSEAGVSVQQGAASLPLGGCRVVSDSRLAKTRDGLSVPKHSAGSGAEESNSSSTVQKQNEPGLQTEDVQKPPLQMDNSVFLDDDSNQPMPVSRFFGNVELMQDLPPASSSCPSMSRREFRKMHFRAKDDDDDDDDDAEM
B3: Fibronectin type III and SPRY domain-containing protein 2 (Homo sapiens), A1L4K1 (parent)
chain: MEEESGEELGLDRSTPKDFHFYHMDLYDSEDRLHLFPEENTRMRKVVQAEMANESRGAGDGKAQRDLQEEVDELVHLYGLEDDHELGDEFVDENIPRTGVSEYPPYMMKRRDPAREQRDWRLSGEAAEAEDLGFGGWGSAGQCQDLREAYRYTHGRASEEYECYVIPEEEDEEEAADVFCVTCKTPIRAFQKVFDEHKEHEVIPLNEALESAKDEIHKNMYKLEKQIIEMENFANHLEEVFITVEENFGKQEQNFESHYNEILETLAQKYEEKIQALGEKKKEKLEALYGQLVSCGENLDTCKELMETIEEMCHEEKVDFIKDAVAMADRLGKFLKTKTDVEISAQPEFEDQTLDFSDVEQLMGSINTIPAPSAPVINPQVPNSATGSSVRVCWSLYSDDTVESYQLSYRPVQDSSPGTDQAEFTVTVKETYCSVTNLVPNTQYEFWVTAHNRAGPSPSSERAVYMTAPSPPIIKTKEIRSCEEAVLICWESGNLNPVDSYTVELTQAESPEASGVTESVVGIPTCESVVQLQPGRSYIIYVRALNMGGPSVRSEPATVHTIGSYFRLNKDTCHPWLTISEDGLTAVRSERRTPARELSPSDTHFTRCVAVMGNLIPVRGHHYWEVEVDEHLDYRVGVAFADVRKQEDLGANCLSWCMRHTFASSRHKYEFLHNRTTPDIRITVPPKKIGILLDYEHSKLSFFNVDLSQHLYTFSCQLHEFVHPCFSLEKPGCLKVHNGISMPKHVTFY
partner: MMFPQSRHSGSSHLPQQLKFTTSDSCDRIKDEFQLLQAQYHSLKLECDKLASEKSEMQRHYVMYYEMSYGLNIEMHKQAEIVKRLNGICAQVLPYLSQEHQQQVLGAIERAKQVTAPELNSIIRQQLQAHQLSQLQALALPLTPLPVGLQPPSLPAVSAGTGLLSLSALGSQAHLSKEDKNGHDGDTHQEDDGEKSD
B4: Zinc finger CCHC domain-containing protein 10 (Homo sapiens), Q8TBK6 (parent)
chain: MATPMHRLIARRQAFDTELQPVKTFWILIQPSIVISEANKQHVRCQKCLEFGHWTYECTGKRKYLHRPSRTAELKKALKEKENRLLLQQSIGETNVERKAKKKRSKSVTSSSSSSSDSSASDSSSESEETSTSSSSEDSDTDESSSSSSSSASSTTSSSSSDSDSDSSSSSSSSTSTDSSSDDEPPKKKKKK
B5: Isoform Long of Autophagy protein 5 (Homo sapiens), Q9H1Y0-1 (parent)
chain: MTDDKDVLRDVWFGRIPTCFTLYQDEITEREAEPYYLLLPRVSYLTLVTDKVKKHFQKVMRQEDISEIWFEYEGTPLKWHYPIGLLFDLLASSSALPWNITVHFKSFPEKDLLHCPSKDAIEAHFMSCMKEADALKHKSQVINEMQKKDHKQLWMGLQNDRFDQFWAINRKLMEYPAEENGFRYIPFRIYQTTTERPFIQKLFRPVAADGQLHTLGDLLKEVCPSAIDPEDGEKKNQVMIHGIEPMLETPLQWLSEHLSYPDNFLHISIIPQPTD
partner: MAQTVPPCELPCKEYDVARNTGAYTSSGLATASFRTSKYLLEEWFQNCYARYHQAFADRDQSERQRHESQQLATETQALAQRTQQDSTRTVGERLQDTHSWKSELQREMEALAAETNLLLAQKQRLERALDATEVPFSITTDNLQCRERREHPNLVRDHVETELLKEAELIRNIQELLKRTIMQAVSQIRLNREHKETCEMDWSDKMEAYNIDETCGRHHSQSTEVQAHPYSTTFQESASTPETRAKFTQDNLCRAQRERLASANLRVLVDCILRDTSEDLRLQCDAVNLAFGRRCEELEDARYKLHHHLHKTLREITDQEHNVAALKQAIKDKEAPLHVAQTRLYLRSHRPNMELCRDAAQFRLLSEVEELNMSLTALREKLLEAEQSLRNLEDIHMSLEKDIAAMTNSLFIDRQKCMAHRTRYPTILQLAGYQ

Variants of: B1
Conditions: with nmd3_human NMD3, Q96D46

Q: How did the “effect of a mutation on the interaction” value turn out when V145I was run?
A: Its value is “with no effect”.

Q: For T183I, which “effect of a mutation on the interaction” value is on record?
A: The value was “with no effect”.

Variants of: B2
Conditions: with ikzf1_human IKZF1, Q13422
Chain of ikzf1_human IKZF1, Q13422 (Q13422 whole entry): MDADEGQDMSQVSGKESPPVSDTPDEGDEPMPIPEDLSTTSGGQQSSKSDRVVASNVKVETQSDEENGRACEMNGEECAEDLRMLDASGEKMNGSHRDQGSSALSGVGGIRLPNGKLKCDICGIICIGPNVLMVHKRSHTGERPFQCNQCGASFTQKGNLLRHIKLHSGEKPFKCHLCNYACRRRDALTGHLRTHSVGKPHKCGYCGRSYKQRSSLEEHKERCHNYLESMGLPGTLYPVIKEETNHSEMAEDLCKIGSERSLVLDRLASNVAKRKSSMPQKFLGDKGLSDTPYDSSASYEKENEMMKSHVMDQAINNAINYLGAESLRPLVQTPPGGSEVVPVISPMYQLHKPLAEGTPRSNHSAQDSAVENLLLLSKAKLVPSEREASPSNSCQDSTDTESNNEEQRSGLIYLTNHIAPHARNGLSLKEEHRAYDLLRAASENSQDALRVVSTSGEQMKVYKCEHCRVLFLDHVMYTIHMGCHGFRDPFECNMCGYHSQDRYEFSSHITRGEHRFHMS

Q: With S82A as the variant, how does the “effect of a mutation on the interaction” value read?
A: Its value is “with no effect”.

Q: With A81T as the variant, how does the “effect of a mutation on the interaction” value read?
A: The value was “with no effect”.

Q: For R131C, which “effect of a mutation on the interaction” value is on record?
A: The value was “with no effect”.

Q: With V195M as the variant, how does the “effect of a mutation on the interaction” value read?
A: The value was “with no effect”.

Variants of: B3
Conditions: with tle5_human TLE5, Q08117

Q: E720K was tested. Which “effect of a mutation on the interaction” value did it give?
A: Its value is “with no effect”.

Q: For K333T, which “effect of a mutation on the interaction” value is on record?
A: The value was “with no effect”.

Variants of: B4
Conditions: with cep70_human CEP70, Q8NHQ1
Chain of cep70_human CEP70, Q8NHQ1 (Q8NHQ1 whole entry): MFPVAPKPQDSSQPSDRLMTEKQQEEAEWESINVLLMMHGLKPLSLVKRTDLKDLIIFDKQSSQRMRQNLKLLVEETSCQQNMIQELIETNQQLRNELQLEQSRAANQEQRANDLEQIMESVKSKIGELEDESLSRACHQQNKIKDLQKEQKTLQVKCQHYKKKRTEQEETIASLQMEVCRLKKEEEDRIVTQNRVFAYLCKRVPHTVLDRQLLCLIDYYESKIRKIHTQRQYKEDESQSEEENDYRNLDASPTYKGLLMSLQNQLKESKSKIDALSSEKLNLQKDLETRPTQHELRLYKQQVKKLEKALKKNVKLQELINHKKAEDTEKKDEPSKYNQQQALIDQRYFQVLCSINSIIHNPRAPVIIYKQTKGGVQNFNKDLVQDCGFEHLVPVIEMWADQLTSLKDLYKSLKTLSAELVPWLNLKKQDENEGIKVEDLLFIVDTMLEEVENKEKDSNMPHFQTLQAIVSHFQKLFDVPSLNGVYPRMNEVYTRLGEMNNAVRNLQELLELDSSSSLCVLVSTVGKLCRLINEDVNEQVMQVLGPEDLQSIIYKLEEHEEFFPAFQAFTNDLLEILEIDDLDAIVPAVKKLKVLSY

Q: For S153P, which “effect of a mutation on the interaction” value is on record?
A: Its value is “with no effect”.

Variants of: B4
Conditions: with dzip3_human DZIP3, Q86Y13
Chain of dzip3_human DZIP3, Q86Y13 (Q86Y13 whole entry): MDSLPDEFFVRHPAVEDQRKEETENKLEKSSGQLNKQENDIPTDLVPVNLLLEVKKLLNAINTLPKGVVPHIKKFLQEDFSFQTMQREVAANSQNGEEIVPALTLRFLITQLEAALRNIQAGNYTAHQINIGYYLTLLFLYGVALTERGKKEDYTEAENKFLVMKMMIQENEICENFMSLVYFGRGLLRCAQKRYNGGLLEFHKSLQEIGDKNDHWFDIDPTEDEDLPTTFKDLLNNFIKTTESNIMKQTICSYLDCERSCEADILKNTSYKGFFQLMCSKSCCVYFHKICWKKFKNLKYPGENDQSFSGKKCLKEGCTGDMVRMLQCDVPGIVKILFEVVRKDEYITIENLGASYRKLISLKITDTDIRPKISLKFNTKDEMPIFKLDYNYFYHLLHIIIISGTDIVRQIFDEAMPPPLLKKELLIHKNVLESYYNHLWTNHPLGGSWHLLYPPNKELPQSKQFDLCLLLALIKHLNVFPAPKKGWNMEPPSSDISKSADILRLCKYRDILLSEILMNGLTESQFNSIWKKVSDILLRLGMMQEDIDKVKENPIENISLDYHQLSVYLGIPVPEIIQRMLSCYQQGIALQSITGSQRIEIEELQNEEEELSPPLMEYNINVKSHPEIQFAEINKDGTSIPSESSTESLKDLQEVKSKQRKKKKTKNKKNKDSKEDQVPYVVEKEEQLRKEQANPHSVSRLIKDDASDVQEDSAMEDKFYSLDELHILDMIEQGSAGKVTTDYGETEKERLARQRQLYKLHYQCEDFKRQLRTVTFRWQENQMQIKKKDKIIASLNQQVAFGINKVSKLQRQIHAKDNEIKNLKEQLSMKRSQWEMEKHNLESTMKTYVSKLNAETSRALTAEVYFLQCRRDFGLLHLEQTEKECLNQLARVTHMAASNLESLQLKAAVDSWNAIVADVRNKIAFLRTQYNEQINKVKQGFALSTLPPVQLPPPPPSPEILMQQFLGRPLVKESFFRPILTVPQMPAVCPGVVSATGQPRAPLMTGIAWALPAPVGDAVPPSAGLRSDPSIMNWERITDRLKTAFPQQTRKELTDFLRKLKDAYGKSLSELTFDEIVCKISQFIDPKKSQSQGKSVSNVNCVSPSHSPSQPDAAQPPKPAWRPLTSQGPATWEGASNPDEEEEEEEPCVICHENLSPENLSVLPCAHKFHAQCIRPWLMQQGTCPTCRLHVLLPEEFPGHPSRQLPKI

Q: Which “effect of a mutation on the interaction” value does the source give for S153P here?
A: The value was “with no effect”.

Variants of: B5
Conditions: with tekt4_human TEKT4, Q8WW24

Q: How did the “effect of a mutation on the interaction” value turn out when K58M was run?
A: Its value is “with no effect”.
